Results on 21 sequences are retold here after a protein production outcome set (Wang et al. 2014).

The series can be described thus: label from the status in PepcDB records.
As for “MTKKQKEILFCDYFEEWVEVYKVGAIAKITLAKYYNAAKQLRDLCPKLFISDFDRREYQRIINVYAETHEKQTVKDFHHHVKACIKDLFHDGLIDKDPTYRVVIKGAEPTRAKKRKFLQKEELSKLLQSLDMSQIGFGWFVMLVAKTGMRYAEALAITPADFDWTAQTISINKTWDYKYNKGFAKTKTLSSVRTIKIDWQIVGQFKPLIKDFPEDEPIFVEKFGDGTYKRQFNSTINNFLAVKCNETGITQISFHALRHTHASVLLAEGVSIHTISARLGHADVGVTQETYAHVLDELQKKDDQKMLSVLMQIA”, the protein production entry was “failed”.
For “MTKLEQIQQWTAQHHASMTYLSNPKTIEYLTGFGSDPIERVLALVVFPDQDPFIFAPALEVEVIKETGWQFPVIGYLDHENPWAMIADQVKQRHVNPEHVAIEKGQLQVARMEALAAQFSAPSFDLDITSFIEHMR”, the protein production entry is recorded as “not failed”.
Under “MTKLINFLAEYQREIESQPIELDLALFSRLVGLPFEAVLTQPSAPLVEACMKLIEFVDNENYLILPADRQMLEQIAFSNRYQSVQICDVVQGPHRFLAATFVLSKTTKVIAFRGPNGTLLSWKADLHFSFSSINKLKIQAHQYLLQALQHDNQNIYCVGFSQGASIAALACMDISDTHRHRIQTIIFDSPGLPDDHYQSPIPIIELVPPLSLFALVGEHPFHQITISSSSTGIWQHDLYSWEADSHGEFAKNIGITNPTTIQHQFIQLLPSNITDENIDRTLNVAISIFSQLNFHSTSELIKHWNQFNALIQTEITAENIVVKTAILRLQKLIFKNAALNLQSIPLN” stands “failed”.
Under “MTKMNRETVITEALDLLDEVGLDGVSTRRLAKRLGVEQPSLYWYFRTKRDLLTAMAQAAMAPHAAEPLPEPGEDWHGWFLRNTRSFRRTLLARRDGARLHAGSRPTADLDRVRRKMDFLVASGVPERHAQMAMLAAGRFTVGCVLEEQAETGAGDTADLPADVPEIDHESAFEAGLALITDGLVRHVDAR” stands “not failed”.
The result for “MTKNNILNNKITKVILFRICFIIAITTALVCGLKLNIINDGFWHIKVGEYIIKNRVIPREDIFSWYGIENKLKWISHEWLFGVIAYLVYKIKGFTSVIIFSTIVNCSTALLVYKFALIRNKNKVVSLIIMWVYIFGDFYDITYRPVLISKLILLCSFILLEKKKYLFALIVLILGVNIHGGIYPLYLMIFAYYTIPFSYKYLIFSLITVLINPYGYNLYKYTYLSMKNIDINRYINEWCITPIYDYKVALIIICITVCICTVSKIKFKDFLFCGALIILAISAKRHVDVIYLFVLPVISLYFNSFYFDFFMKFVSRIKPEKLKSIIPKLNYITCGFLIVVMIVKSSLCIKQYFFDTHFHNFEYITNDSENPIKACNFINSHQEIKNSRTFNDYNSSPYIIFRGIKTFVDSRQDLFTYNFNKTNAFVDQIKALNNYDYMIYVFKKYNIKYAILRNDMPNTRLLRNTDLIYIIYEDRDYSIFQINRNKLKSSNQRGV” reads “failed”; that for “MTKPILKKKERVDQLFSTDVKIIQNKEVFSYSIDSVLLSRFPKIPSRGLIVDLCSGNGAVGLFAATRTKAKIIEVELQERLADMAQRSIQLNDLTNQVSMIRDDLKNLLDHVPRSKVDLILCNPPYFKAAETSKKNLSEHYLLARHEIATNLEEICKISQQVLKTNGRLAMVHRPDRFLEIIDTFKKYKLAPKRLQFVYPKLGKDANMLLIETIKDGSPNGMKILPPLIVHKDNGDYTDNIHEIYFGKGHQAYMYVLKCADDSLYTGYTTDIKKRLATHNAGKGAKYTRARLPVELIYVEQFNHKNAAMSAEGKLKQKTRAQKLHYIEEHQHINLVSQF”, “failed”; that for “MTKQPDLLKVDWSAIPAPDDDGAAAHLPGARIQPVALPATDGSSVTLSSLPGRTVLFIYPRTGVPGQISLVDDWDMIPGARGCTPQTCSFRDLFTDLKTAGADAVFGLSTQSSAYQSEMATRLHLPFPVLSDESLELTRALNMPTMQVAGMTLLKRMALIIDDGRISHVFYPVFPPDRNAGDVLEWLKANPR”, “failed”.
For the sequence “MTKQQKGFVTGQPTGALNLSDILDSEELGEYHLMSAAIITGNTVDFSGLGAGPDDPFEIASITKIFTGELLRLQIERGEITESTAVGDVLGERVADSLIRDITVEELANHTSGLPRLGNVGLRPFMATFFDKNPYKDLSADRVISISTTSKLNSRGEFHYSNLGFALLGQVLARNAGLTFDQLLDRDLLAPLNLNNTKLMTPESLAQDAPQGFSTPGKQVEAWEMDGFLPAAGLRSTARDMAVFCQYLFTKGPAPFTWQSLESAPEIVWHNGESFGYSSVLFFNTATTTAIFVAADVATSVFPIGHELLMANSTRQESKLEHHHHHH”, the protein production result is on record as “failed”.
Consider “MTKRFKLKISRILSFKSCRLKDPSSLPFNPVSSSLRRTSPLVNSSADVTTVPQRRRSSFRLHVLTVFGCGRSSTPLDVDLRNSPVLSPPQTPTFQWESEGKWHVIAQVTEEEYETPRRKIYNGGSEKDNRRRLKKKEKSNSRRRGSISSAEEETDRESLLPSSTNLSPEYSSSELPRVTRRPRQLLKKAVIEEESESSSPPPSPARLSSFVQRLMPCTMAAAVMVEGVAVVKKSEDPYEDFKGSMMEMIVEKKMFEVAELEQLLSCFLSLNAKRHHRAIVRAFSEIWVALFSGGSGGGRRSSSFSSVRLSDYDEC”, for which the protein production result is recorded as “failed”.
As for “MTKTAKVNDIVRDWVVLDAKDKVFGRLITEIAVLLRGKHRPFYTPNVDCGDFVVVINANKVKFSGMKLEDKEYFTHSGYFGSTKSKTLQEMLEKAPEKLYHLAVRGMLPKTKLGKAMIKKLKVYRDDKHPHTAQTSKKDAK”, the protein production entry is on record as “failed”.
The result for “MTKVIAITGKGGTGKTAVAALLIRSLSKKGQFILAVDADADTNLPETLGCENVKTIGDAKEFLQAEITKPRPDNPDMNKESVLQSKVYEIIEEMPGYDLLVMGRPEGSGCYCYVNNLLRGIMDKLVKNYDLVVIDAEAGLEHFSRKIIRDIDDLIVVTDASRRGFRTAERIHELVNELESNIGSIHVIANKVTDANREKLVKLAEELKLNLIGMIPLDPKIEEMDIKGIPLFEIPDDSVAAVEIENIVKKLGF” reads “failed”.
Under “MTKYLKYFIISMFRSRGLIFFGLFLILLSLIPNMLSISDSAHYSLKVLNHASRWYGLAILISFSIVSGTLAQMIYFSSSAIIYLHRHSKLSINRYYFESTLGAMVIFGIYALIILFATIVGYSYVSKNIIFPKKLLMLVLFTMLAGLFYFSLSFSLQAIATLLKKAHLIEYLAYFLISLTFLLGYLQVNTSLDVSLLVFLSPLNSILSLLIYGYSGILSFSVEFLLVTSLFYITVLQLISVWSLKRLKEVRIEDKLI” stands “failed”.
The result for “MTLATATNEHLANISNTLIYSAMAVYTLAFFAYIAEWLFGSRSKVGRTAAALTHKTAAKAPAVTVKSAGGTAVLDRPQVVTRSAPGARDVPDGPGAHGGDEQGDLYGRIAVSLTVLAFAVEAAGVVARALSVQRAPWGNMYEFNITFSTVAVGVYLALLALKKNIRWLGLPLVTTVLLDLGLAVTVLYTASDQLVPALHSYWLYIHVSTAILCGAVFYVGAVGALLYLFKDSYENKLATGGQPGRFATSVMERLPASASLDKFSYRVNAAVFPLWTFTIIAGAIWAGDAWGRYWGWDPKETWAFITWVAYACYLHARATAGWKGRKAAYIALIAFACWLFNYYGVNIFVSGKHSYAGV” reads “failed”; that for “MTLIPTDLSASRLSDAVRDPNREIAASSRVIDLSVGIVVCIPCFRRPQHLRLTLESLASQRTPRSFAVVMVENDAARRESAPVAAEYLADGRLQGICLVEQRQGNCQAINAAFETAQALFPAATRFLMIDDDEIASPDWLELMVRTAEATGADVVGGPVLPDFDDDSQPWLSRHPAFRPAYDYSGAVPLIYGCGNCLITRAAFDRLGSPAFDLRFNFLGGGDCDFFVRCRDAGMTFHWTTEAVITETVPQSRTSLGWIAKRGLRIGAINYRVQHKAAQGAAARVRVFAQMLGRLPLSLLRAARLLATSKAVVAMHPVMVALGSLLAALGIEPKPYEASKIVS”, “failed”; that for “MTLMCSIAGIYLAKLPYANIIGALVLALLLGILMQLAPEKMRKEASSGMSFISNKFLRLGIILLGFRLDLEKLAAAGVKTILVAALAVAGTITLTYWLSRKFGAEDELAFLSACGCGVCGAAAVMGVSPQITAASEERKRENEVLAVAVVCVMGTVFTLLEIGLKPVLGLTDSQFGIVAGGSLHEIAHAVASGGAFGNISLDSALIMKLSRVILLAPVALIIGYLYQRRTAKVSTIDSTTKTGKLPIPWFLGGFILTSVLGTYLPFSTSLLDALVQVAYIFLGMAMAALGISVNFKVIFKRGGAVFGAAAISSTCLLIFMIIMSKLFF”, “failed”.
As to “MTLRAARPEFLDLFPAGAEARRLADGFTWTEGPVYVPARSAVIFSDVRQNRTWAWSDDGQLSPEMHPSHHQNGHCLNKQGHLIACSHGLRRLERQREPGGEWESIADSFEGKKLNSPNDVCLAPDGSLWFSDPTYGIDKPEEGYGGEMELPGRWVFRLAPDGTLSAPIRDRVKPNGLAFLPSGNLLVSDTGDNATHRYCLNARGETEYQGVHFTVEPGKTDGLRVDAGGLIWASAGDGVHVLTPDGDELGRVLTPQTTSNLCFGGPEGRTLYMTVSTEFWSIETNVRG”, the protein production entry is on record as “failed”.
The result for “MTLTIPNAPGSSGYLDMFPERRMSYFGNSYILGLTVTAGIGGLLFGYDTGVISGALLYIKDDFEVVKQSSFLQVYNVSSFTSSKLETIVSMALVGAMIGAAAGGWINDYYGRKKATLFADVVFAAGAIVMAAAPDPYVLISGRLLVGLGVGVASVTAPVYIAEASPSEVRGGLVSTNVLMITGGQFLSYLVNSAFTQVPGTWRWMLGVSGVPAVIQFILMLFMPESPRWLFMKNRKAEAIQVLARTYDISRLEDEIDHLSAAEEEEKQRKRTVGYLDVFRSKELRLAFLAGAGLQAFQQFTGINTVMYYSPTIVQMAGFHSNQLALFLSLIVAAMNAAGTVVGIYFIDHCGRKKLALSSLFGVIISLLILSVSFFKQSETSSDGGLYGWLAVLGLALYIVFFAPGMGPVPWTVNSEIYPQQYRGICGGMSATVNWISNLIVAQTFLTIAEAAGTGMTFLILAGIAVLAVIFVIVFVPETQGLTFSEVEQIWKERAYGNISGWGSSSDSNNMEGLLEQGSQS” reads “not failed”.
“MTLTMGFIGFGKSANRYHLPYLKTRNNIKVKTIFVRQINEELAAPYEERGVYFTTDLDELLNDKEIQVVTICTPAHTHYELAKKVILAGKSVIVEKPFCDTVEHAKELLALGREKGVVVMPYQNRRFDGDFLAVKQVVEQGFLGDIIEIESHIDYFRPGSITHEAPKEEGSFYSLGIHTMDRMISLFGRPNTVTYDIRNNEVEGAVDNYFDVGLHYGNQLKIKLKTNHIVAKDYPRFIVHGTNGSFIKYGEDQQENDLKAGIMPESAGFGEDSPMYYGIAKYRNANGDWIEKQIKTPLGDYGRFYDAAYDTIVNGAPKLVKDEEAVTNIEILENGFAAPSPSVYKLEALHLNELEHHHHHH”: the protein production result is “not failed”.
For the sequence “MTLVRMTEKLLSPLHTRPWPERWLTRVLGAALASAAYLLCLPWDLNNRAPSPGAVEETTPVTGVGVVALAVILLALAAYFGHRDSLGWPVLLVAVPPAALLYVSLRTHPGPPDGFAGVWPLVWGFFTLLIGVGVLVAAAVAREFRADLVDEELSLAHRR”, the protein production entry is “failed”.
“MTLVSVVLPVYQGAPWIRGALDCLAAQTHRPLEILVVDDASSDGTPAVVEDWRARHPDLSVRLIVRPENGGPGVARNDALALARGAYVAFLDADDRCVPWRLARQLARLEAEPGLGSVGAWYDMVDADGTPVAARRLSVTAGEMAWAALIHPPFLLSTLMTRRALCRPGIFAPRHQGEDAPAQRRLLWQAPAAMIEEVLVTYRTDPHRPQDPRMGVAMAEDLAPLTGPLSAAEAWALHDALLAFPNRVTPAAIAAVSGLFTLLGVFRGLRPAWMTRPEYNRLFEGYLDLAAPFLAAHGESLLAPPSPQAPRVAPWMGPWEAEWRAGEARSDRPRPKEIFPPVGGDSPSKLSG”: the protein production entry is “failed”.
In the case of “MTLVVPFDGSELAEAALVRAAEFGTVFEEDVLAVSVIRNGNAKYAREHDWIGPNEDFDLEAVVTSLHEQVIDLCPSSDFRHTVVDRYAPAGAVAKAIRKLAKREDASMVFIGSENAGHLVTSISSVGGSIASDDAYDVVIVRHRNPSKIAKLRNTSPHRQSKSDFYLPE”, the protein production result is recorded as “failed”.
